Laboratory results: publication PMC12371696
Values belong to the molecule of their own block, whether it stands above or below them. Ends that are not written are not given here.

Columns and labels:
[1] = target: Trastuzumab with E5 Ecoil peptides fused at the C-termini of heavy and light chains (TZM-E5); experiment: SEC-MALS; UPLC-SEC-MALS; TZM-Ex mixed with Kx-mRFP at 1:4 molar ratio (2 nmol + 8 nmol), 45 min at room temperature; BEH200 column, 0.2 M potassium phosphate, 0.2 M potassium chloride, 0.02% Tween-20, pH 7.0, 30 °C
[2] = target: Trastuzumab with E5 Ecoil peptides fused at the C-termini of heavy and light chains (TZM-E5)

stoichiometry N (K5-mRFP per TZM-E5) [1]: 4
Molecule: K5 Kcoil peptide fused to the N-terminus of monomeric red fluorescent protein (K5-mRFP) (designed binder)

tumor fluorescence (total radiant efficiency, area under the curve 3-336 h) after intravenous injection of the preformed TZM-E5/K5-CF750 complex in the SKOV3 xenograft mouse model ([p/s] × h /[uW/cm^2]) [2]: 4.4e+13
B1: K5 Kcoil peptide (KVSALKE)5-GGC conjugated to CF750 maleimide near-infrared dye (K5-CF750) (peptide)
peptide: KVSALKEKVSALKEKVSALKEKVSALKEKVSALKEGGC(CF750 maleimide)
